Reference: patent US20020099180A1 (published 2002)
Each block holds one binder with its values, some of them ahead of it.

How the values were obtained:
[1] = molecular target: T1, fibroblast activating protein alpha (FAPα), cell surface-bound on FAP+ cells (FAP over-expressing HT1080 … (human, UniProt Q12884 1-760)); experiment: binding to FAP+ cells, cell analyser, half maximal saturation
T1 construct: whole, on cells; Target of the flow cytometry and of the immunohistology; also called cell membrane expressed FAP
T1 sequence (looked up): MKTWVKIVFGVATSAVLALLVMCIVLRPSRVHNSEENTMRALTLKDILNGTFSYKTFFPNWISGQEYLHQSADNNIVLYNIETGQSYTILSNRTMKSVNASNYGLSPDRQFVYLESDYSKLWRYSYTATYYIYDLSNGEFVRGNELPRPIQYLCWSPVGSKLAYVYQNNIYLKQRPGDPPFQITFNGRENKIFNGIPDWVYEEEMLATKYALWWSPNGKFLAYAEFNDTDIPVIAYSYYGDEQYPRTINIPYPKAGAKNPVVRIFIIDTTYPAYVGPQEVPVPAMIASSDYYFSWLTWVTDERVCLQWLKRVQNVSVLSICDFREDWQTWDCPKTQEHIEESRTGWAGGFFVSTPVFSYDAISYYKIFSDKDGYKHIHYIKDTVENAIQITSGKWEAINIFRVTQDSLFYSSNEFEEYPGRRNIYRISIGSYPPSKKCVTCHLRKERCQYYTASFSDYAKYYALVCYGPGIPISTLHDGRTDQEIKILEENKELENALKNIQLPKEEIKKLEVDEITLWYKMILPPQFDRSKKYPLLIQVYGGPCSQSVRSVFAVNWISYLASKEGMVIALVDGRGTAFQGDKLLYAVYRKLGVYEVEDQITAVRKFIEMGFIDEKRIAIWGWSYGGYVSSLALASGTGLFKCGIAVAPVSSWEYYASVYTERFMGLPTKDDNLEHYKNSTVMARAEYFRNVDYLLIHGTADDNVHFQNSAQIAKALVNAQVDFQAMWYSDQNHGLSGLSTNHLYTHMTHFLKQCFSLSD

[2] = molecular target: T1, fibroblast activating protein alpha …; experiment: flow cytometry saturation on FAP expressing HT1080 cells; SC50
[3] = molecular target: T1, fibroblast activating protein alpha …; experiment: flow cytometry saturation on FAP-overexpressing cells; half maximal saturation
[4] = molecular target: T2, fibroblast activating protein alpha (FAPα), purified and immobilised (ELISA wells) (human, UniProt Q12884 27-760, limits assumed); experiment: sandwich ELISA, c-myc tag detection; SC50 = concentration of half maximal saturation of binding
T2 construct: also called purified FAP; immobilized FAP
T2 sequence (looked up): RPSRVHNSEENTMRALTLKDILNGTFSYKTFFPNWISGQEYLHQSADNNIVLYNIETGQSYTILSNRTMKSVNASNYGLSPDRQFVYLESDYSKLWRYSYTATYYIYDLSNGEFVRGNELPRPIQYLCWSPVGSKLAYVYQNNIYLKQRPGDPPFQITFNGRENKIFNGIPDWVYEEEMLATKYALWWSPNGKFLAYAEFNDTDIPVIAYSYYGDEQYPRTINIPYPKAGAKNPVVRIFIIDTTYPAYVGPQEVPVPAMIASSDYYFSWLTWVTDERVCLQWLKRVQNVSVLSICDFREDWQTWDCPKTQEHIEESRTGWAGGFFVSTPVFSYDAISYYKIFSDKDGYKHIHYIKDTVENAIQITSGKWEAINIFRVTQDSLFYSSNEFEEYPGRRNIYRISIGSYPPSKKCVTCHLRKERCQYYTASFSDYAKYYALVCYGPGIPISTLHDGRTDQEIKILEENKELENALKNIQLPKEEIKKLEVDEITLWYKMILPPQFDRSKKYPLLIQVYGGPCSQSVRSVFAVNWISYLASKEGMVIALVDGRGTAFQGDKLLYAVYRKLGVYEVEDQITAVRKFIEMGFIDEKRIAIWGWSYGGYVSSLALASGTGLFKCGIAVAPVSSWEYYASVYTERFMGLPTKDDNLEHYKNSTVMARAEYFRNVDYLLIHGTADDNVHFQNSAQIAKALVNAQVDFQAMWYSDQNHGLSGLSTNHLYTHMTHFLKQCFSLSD

B1: scFv #18 (VH #18, IgG; VL III43; murine HCDR3 F19) (scFv)
scFv: QVQLVQSGAELKKPGSSMKVSCKASGDTFSTYSINWVRQAPGQGLEWMGVINPSGGSTSYAQKFQGRVTMTRDTSTSTVYMELSSLRSEDTAVYYCARRRIAYGYDEGHAMDYWGQGTLVTVSSASTKGPKLEEGEFSEARVDIQMTQSPSSLSASTGDRVTITCRASQDISSYLAWYQQAPGKAPHLLMSGATTLQTGVPSRFSGSGSGTDFTLTISSLQAEDVAVYYCQQYYRTPFTFGQGTKLEIKRTVAAPSVFAA
notes: Humanised monovalent scFv, detected through the c-myc tag with 9E10; also called clone #18; VH18 YOL III43; not shown: c-myc and HIS6 tags (pOPE101), or pIII in the screening ELISA
EC50 [1]: ~6 nM
EC50 [2]: 6 nM

B2: scFv #34 (VH #34, IgG; VL III43; murine HCDR3 F19) (scFv)
scFv: QVQLQQSGAEVKKPGSSVKVSCKASGGTFSTHTINWVRQAPGQGLEWMGGIAPMFGTANYAQKFQGRVTITADKSTSTAYMEMSSLRSDDTAVYYCARRRIAYGYDEGHAMDYWGQGTLVTVSSASTKGPKLEEGEFSEARVDIQMTQSPSSLSASTGDRVTITCRASQDISSYLAWYQQAPGKAPHLLMSGATTLQTGVPSRFSGSGSGTDFTLTISSLQAEDVAVYYCQQYYRTPFTFGQGTKLEIKRTVAAPSVFAA
notes: Humanised monovalent scFv, detected through the c-myc tag with 9E10; also called clone #34; VH34YOL III43; not shown: c-myc and HIS6 tags (pOPE101), or pIII in the screening ELISA
EC50 [1]: ~6 nM
EC50 [2]: 6 nM

EC50 [3]: 2 nM
B3: Mb #34 (minibody of scFv #34) (other)
chain: B2 scFv
notes: also called scFv #34-minibody; not shown: hinge-linker-CH3-cmyc-HIS6 of the minibody

EC50 [2]: 20 nM
EC50 [4]: 20 nM
B4: scFv F19 (parental murine scFv of the monoclonal antibody F19) (scFv, V domains shown)
VH: EVQLQQSGPELVKPGASVKMSCKTSRYTFTEYTIHWVRQSHGKSLEWIGGINPNNGIPNYNQKFKGRATLTVGKSSSTAYMELRSLTSEDSAVYFCARRRIAYGYDEGHAMDYWGQGTSVTVSS
VL: DIVMSQSPSSLAVSVGEKVTMSCKSSQSLLYSRNQKNYLAWFQQKPGQSPKLLIFWASTRESGVPDRFTGSGFGTDFNLTISSVQAEDLAVYDCQQYFSYPLTFGAGTKLELK

EC50 [4]: 20 nM
B5: chimeric scFv III43 (murine VH F19 / human VL III43) (scFv, V domains shown)
VH: B4 VH
VL: DIQMTQSPSSLSASTGDRVTITCRASQDISSYLAWYQQAPGKAPHLLMSGATTLQTGVPSRFSGSGSGTDFTLTISSLQAEDVAVYYCQQYYRTPFTFGQGTKLEIKR

EC50 [1]: 8 to 12 nM
B6: scFv #13 in minibody format (bivalent) (other)
chain: QVQLVESGGTLVQPGGSLRLSCAASGFTFSSYAMSWIRQAPGKGLEWVSGISASGGYIDYADSVKGRVTISRDNSKNMAYLQMSSLRAEDTALYYCAKGGNYQMLLDHWGQGTLVTVSSASTKGPKLEEGEFSEARVDIQMTQSPSSLSASTGDRVTITCRASQDISSYLAWYQQAPGKAPHLLMSGATTLQTGVPSRFSGSGSGTDFTLTITSLQSEDFATYYCQQYYIYPPTFGQGTRVEIKRTVAAPSVFAA
notes: also called scFv #13 (as bivalent in minibody format); scFv #13 (minibody format); not shown: hinge-linker-CH3-cmyc-HIS6 of the minibody

EC50 [1]: 32 nM
B7: scFv #50 in minibody format (bivalent) (other)
chain: QVQLVESGGGLVQPGGSLRLSCAASGFTFSNYWMSWVRQAPGKGLEWVANIKQDGSEKYYVDSVKGRFTISRDNAKNSLYLQMNSLRAEDTAVYYCARGSLCTDGSCPTIGPGPNWGQGTLVTVSSAPTKAPKLEEGEFSEARVDIQMTQSPSSLSASTGDRVTITCRASQDISSYLAWYQQAPGKAPHLLMSGATTLQTGVPSRFSGSGSGTDFTLTITSLQSEDFATYYCQQYYIYPPTFGQGTRVEIKRTVAAPSVFAA
notes: Minibody: bivalent homodimeric scFv derivative; also called scFv #50 (as bivalent in minibody format); not shown: hinge-linker-CH3-cmyc-HIS6 of the minibody
